Reference: IntAct's records for PubMed 31515488

B1: UV excision repair protein RAD23 homolog B (Homo sapiens), P54727 (parent)
chain: MQVTLKTLQQQTFKIDIDPEETVKALKEKIESEKGKDAFPVAGQKLIYAGKILNDDTALKEYKIDEKNFVVVMVTKPKAVSTPAPATTQQSAPASTTAVTSSTTTTVAQAPTPVPALAPTSTPASITPASATASSEPAPASAAKQEKPAEKPAETPVATSPTATDSTSGDSSRSNLFEDATSALVTGQSYENMVTEIMSMGYEREQVIAALRASFNNPDRAVEYLLMGIPGDRESQAVVDPPQAASTGAPQSSAVAAAAATTTATTTTTSSGGHPLEFLRNQPQFQQMRQIIQQNPSLLPALLQQIGRENPQLLQQISQHQEHFIQMLNEPVQEAGGQGGGGGGGSGGIAEAGSGHMNYIQVTPQEKEAIERLKALGFPEGLVIQAYFACEKNENLAANFLLQQNFDED
partner: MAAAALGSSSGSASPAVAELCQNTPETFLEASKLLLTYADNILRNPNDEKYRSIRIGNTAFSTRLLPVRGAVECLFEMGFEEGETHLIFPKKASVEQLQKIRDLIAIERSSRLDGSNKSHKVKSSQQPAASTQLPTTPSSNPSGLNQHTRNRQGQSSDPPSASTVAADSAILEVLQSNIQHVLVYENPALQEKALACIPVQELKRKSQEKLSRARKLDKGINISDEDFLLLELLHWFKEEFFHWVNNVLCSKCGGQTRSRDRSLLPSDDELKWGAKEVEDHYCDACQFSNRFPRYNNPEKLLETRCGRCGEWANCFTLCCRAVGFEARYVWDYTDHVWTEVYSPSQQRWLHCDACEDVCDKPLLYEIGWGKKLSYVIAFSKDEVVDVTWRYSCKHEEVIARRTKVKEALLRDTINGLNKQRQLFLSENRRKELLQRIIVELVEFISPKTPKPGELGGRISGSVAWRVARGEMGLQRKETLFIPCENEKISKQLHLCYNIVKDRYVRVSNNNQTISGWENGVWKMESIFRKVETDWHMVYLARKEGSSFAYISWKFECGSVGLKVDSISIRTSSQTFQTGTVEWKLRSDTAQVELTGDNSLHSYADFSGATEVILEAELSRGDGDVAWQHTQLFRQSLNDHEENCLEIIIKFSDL
B2: Keratin, type II cytoskeletal 79 (Homo sapiens), Q5XKE5 (parent)
chain: MRSSVSRQTYSTKGGFSSNSASGGSGSQARTSFSSVTVSRSSGSGGGAHCGPGTGGFGSRSLYNLGGHKSISVSVAGGALLGRALGGFGFGSRAFMGQGAGRQTFGPACPPGGIQEVTVNQSLLTPLHVEIDPEIQRVRTQEREQIKTLNNKFASFIDKVRFLEQQNKVLETKWALLQEQGQNLGVTRNNLEPLFEAYLGSMRSTLDRLQSERGRLDSELRNVQDLVEDFKNKYEDEINKHTAAENEFVVLKKDVDAAYMGRMDLHGKVGTLTQEIDFLQQLYEMELSQVQTHVSNTNVVLSMDNNRNLDLDSIIAEVKAQYELIAQRSRAEAEAWYQTKYEELQVTAGKHGDNLRDTKNEIAELTRTIQRLQGEADAAKKQCQQLQTAIAEAEQRGELALKDAQKKLGDLDVALHQAKEDLTRLLRDYQELMNVKLALDVEIATYRKLLESEESRMSGECPSAVSISVTGNSTTVCGGGAASFGGGISLGGSGGATKGGFSTNVGYSTVKGGPVSAGTSILRKTTTVKTSSQRY
B3: Caspase-2 (Homo sapiens), P42575 (parent)
chain: MAAPSAGSWSTFQHKELMAADRGRRILGVCGMHPHHQETLKKNRVVLAKQLLLSELLEHLLEKDIITLEMRELIQAKVGSFSQNVELLNLLPKRGPQAFDAFCEALRETKQGHLEDMLLTTLSGLQHVLPPLSCDYDLSLPFPVCESCPLYKKLRLSTDTVEHSLDNKDGPVCLQVKPCTPEFYQTHFQLAYRLQSRPRGLALVLSNVHFTGEKELEFRSGGDVDHSTLVTLFKLLGYDVHVLCDQTAQEMQEKLQNFAQLPAHRVTDSCIVALLSHGVEGAIYGVDGKLLQLQEVFQLFDNANCPSLQNKPKMFFIQACRGDETDRGVDQQDGKNHAGSPGCEESDAGKEKLPKMRLPTRSDMICGYACLKGTAAMRNTKRGSWYIEALAQVFSERACDMHVADMLVKVNALIKDREGYAPGTEFHRCKEMSEYCSTLCRHLYLFPGHPPT

Variants of: B1
Details: with ngly1_human NGLY1, Q96IV0

Effect of a mutation on the interaction, with no effect:
P119H
T269R

Variants of: B2
Details: with kt33b_human KRT33B

Effect of a mutation on the interaction, with no effect:
D217Y
H266R

Variants of: B2
Details: with KRT15, P19012
Chain of KRT15, P19012 (P19012 whole entry): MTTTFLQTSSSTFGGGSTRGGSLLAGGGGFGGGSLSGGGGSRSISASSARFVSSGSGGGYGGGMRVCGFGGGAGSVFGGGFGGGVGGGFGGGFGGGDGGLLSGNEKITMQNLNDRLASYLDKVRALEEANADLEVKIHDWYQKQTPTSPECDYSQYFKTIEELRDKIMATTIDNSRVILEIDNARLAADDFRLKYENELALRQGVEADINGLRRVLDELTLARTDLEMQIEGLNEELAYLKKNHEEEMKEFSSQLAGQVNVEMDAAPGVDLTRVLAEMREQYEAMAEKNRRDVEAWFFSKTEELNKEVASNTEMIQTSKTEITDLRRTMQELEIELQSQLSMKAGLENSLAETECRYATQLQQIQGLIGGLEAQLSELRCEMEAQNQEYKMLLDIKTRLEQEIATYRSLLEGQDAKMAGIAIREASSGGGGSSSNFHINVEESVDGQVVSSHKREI

Effect of a mutation on the interaction, with no effect:
D217Y
H266R
R30C
G86E
R161Q
R213W

Variants of: B3
Details: with cradd_human CRADD

Effect of a mutation on the interaction, with no effect:
V29E
R155H
